Test [1] deals with SARS-CoV-2 S protein containing D614 with the C-terminal 19 residues of the cytoplasmic tail deleted, on MLV pseudovirus (SARS-CoV-2) (UniProt P0DTC2). In words: cell-based or functional assay.
In test [2] the target is stabilized soluble SARS-CoV-2 S ectodomain trimer in the pre-fusion conformation (SARS-CoV-2; bacteriophage T4) (UniProt P0DTC2).

Chain of ACE2615-LL-foldon (Q9BYF1 18-615, tags left off, one chain of several): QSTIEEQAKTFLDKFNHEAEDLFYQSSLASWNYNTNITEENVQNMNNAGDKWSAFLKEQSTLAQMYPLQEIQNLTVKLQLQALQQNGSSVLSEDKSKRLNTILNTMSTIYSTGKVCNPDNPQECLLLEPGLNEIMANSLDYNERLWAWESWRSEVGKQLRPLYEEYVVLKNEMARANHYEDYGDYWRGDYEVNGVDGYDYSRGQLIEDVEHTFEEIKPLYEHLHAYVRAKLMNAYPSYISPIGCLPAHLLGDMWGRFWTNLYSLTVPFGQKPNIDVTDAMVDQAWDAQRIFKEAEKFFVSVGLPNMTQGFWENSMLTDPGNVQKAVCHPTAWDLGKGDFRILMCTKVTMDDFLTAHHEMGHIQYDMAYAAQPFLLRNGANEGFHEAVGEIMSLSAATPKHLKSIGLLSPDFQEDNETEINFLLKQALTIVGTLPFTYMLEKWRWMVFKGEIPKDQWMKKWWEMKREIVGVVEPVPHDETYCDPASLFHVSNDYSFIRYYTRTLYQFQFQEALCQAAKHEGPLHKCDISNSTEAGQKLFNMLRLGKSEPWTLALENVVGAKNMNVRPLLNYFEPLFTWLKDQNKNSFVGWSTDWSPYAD

In general, Kd refers to the concentration at which binding is half-saturated. The term koff denotes the rate constant with which the complex falls apart. Higher therefore signals fast dissociation. A word on the kon: it is a measure of how fast the partners come together. Low readings indicate slower complex formation, high ones faster complex formation. On to “ACE2615-LL-foldon (from UniProt Q9BYF1 18-615; P10104 458-484) (receptor)”, for which the IC50, inhibition of MLV-based pseudovirus infection of ACE2-expressing cells in test [1] came to 0.6 µg/mL. In test [2], this substance showed a Kd of 0.624 nM, a ka2 of 3.3, a kdis2 of 0.365 and a koff of 8.26e-05 s⁻¹. Further, the kon in test [2] was determined as 133000 M⁻¹ s⁻¹.

These data come from patent US20220002701A1.
